Drawing on PMC12098869, “An mRNA-display derived cyclic peptide scaffold reveals the substrate binding interactions of an N-terminal cysteine oxidase” (Nature Communications, 2025), this text covers Kd for 1 molecule.

Values joined by “and” are separate entries in the source; they are usually repeats but may differ in a detail not shown here. Equal values may be shown once.

What all share (assay): SPR; biotinylated ADO or ADO mutant immobilised on a Biotin CAP chip (~2500-3000 RU), substrate peptide injected; Biacore T200, 4 °C; 20 mM HEPES pH 7.5, 500 mM NaCl, 10 mM DTT, 0.1% tween-20; 50 µL/minute; multi-cycle or single-cycle mode not given; each cell is one of three independent measurements
Details in all cases: both partners purified
(Surface plasmon resonance follows binding to a sensor surface in real time, without labels.)

The target of assay [1] is T1, ADO-C220A, N-terminally His-tagged and biotinylated (human, UniProt Q96SZ5 1-270, C220A, biotin (biotinylated during expression)).
T1 construct: 2-aminoethanethiol dioxygenase (ADO), human, UniProt Q96SZ5, full length, site-directed mutant; source: E. coli Rosetta2(DE3), purified (Ni-NTA, SEC); not shown: biotinylation tag (from the vector pQE80L-Navi), N-terminal, kept
T1 sequence (looked up): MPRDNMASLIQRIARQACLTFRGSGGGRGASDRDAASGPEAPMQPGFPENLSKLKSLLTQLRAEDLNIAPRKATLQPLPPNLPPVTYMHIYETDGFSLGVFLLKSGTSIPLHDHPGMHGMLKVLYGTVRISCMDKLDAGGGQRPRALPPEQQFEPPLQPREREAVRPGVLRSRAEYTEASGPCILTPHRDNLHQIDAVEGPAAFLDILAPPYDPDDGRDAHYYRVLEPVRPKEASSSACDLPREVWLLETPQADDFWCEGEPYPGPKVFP

For assay [2], the target named is T2, ADO-Y212A, N-terminally His-tagged and biotinylated (human, UniProt Q96SZ5 1-270, Y212A, biotin (biotinylated during expression)).
T2 construct: 2-aminoethanethiol dioxygenase (ADO), human, UniProt Q96SZ5, full length, site-directed mutant; source: E. coli Rosetta2(DE3), purified (Ni-NTA, SEC); not shown: biotinylation tag (from the vector pQE80L-Navi), N-terminal, kept
T2 sequence (looked up): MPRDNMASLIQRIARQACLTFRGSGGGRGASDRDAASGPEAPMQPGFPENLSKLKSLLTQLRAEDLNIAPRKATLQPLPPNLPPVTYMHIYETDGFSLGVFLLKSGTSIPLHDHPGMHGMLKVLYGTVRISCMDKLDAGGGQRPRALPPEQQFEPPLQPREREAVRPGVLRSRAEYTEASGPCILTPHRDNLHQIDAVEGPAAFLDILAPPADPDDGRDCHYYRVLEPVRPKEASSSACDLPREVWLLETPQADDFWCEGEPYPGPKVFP

Assay [3] addresses T3, ADO-Y87A, N-terminally His-tagged and biotinylated (human, UniProt Q96SZ5 1-270, Y87A, biotin (biotinylated during expression)).
T3 construct: 2-aminoethanethiol dioxygenase (ADO), human, UniProt Q96SZ5, full length, site-directed mutant; source: E. coli Rosetta2(DE3), purified (Ni-NTA, SEC); not shown: biotinylation tag (from the vector pQE80L-Navi), N-terminal, kept
T3 sequence (looked up): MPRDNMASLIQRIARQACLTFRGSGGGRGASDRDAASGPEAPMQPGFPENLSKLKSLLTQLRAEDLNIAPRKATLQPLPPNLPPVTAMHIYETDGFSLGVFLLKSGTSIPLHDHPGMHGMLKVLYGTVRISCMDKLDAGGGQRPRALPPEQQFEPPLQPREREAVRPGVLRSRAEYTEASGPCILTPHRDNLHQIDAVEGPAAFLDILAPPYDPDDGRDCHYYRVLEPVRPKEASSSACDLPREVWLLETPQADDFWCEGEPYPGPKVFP

Assay [4] addresses T4, ADO-F256A, N-terminally His-tagged and biotinylated (human, UniProt Q96SZ5 1-270, F256A, biotin (biotinylated during expression)).
T4 construct: 2-aminoethanethiol dioxygenase (ADO), human, UniProt Q96SZ5, full length, site-directed mutant; source: E. coli Rosetta2(DE3), purified (Ni-NTA, SEC); not shown: biotinylation tag (from the vector pQE80L-Navi), N-terminal, kept
T4 sequence (looked up): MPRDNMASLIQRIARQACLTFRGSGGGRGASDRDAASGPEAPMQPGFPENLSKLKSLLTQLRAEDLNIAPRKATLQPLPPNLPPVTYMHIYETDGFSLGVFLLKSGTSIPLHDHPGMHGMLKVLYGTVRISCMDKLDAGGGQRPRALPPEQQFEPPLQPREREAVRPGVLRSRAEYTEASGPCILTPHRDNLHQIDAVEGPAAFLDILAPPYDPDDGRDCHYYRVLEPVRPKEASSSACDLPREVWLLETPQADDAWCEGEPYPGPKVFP

Assay [5] concerns the target T5, ADO-Y222A, N-terminally His-tagged and biotinylated (human, UniProt Q96SZ5 1-270, Y222A, biotin (biotinylated during expression)).
T5 construct: 2-aminoethanethiol dioxygenase (ADO), human, UniProt Q96SZ5, full length, site-directed mutant; source: E. coli Rosetta2(DE3), purified (Ni-NTA, SEC); not shown: biotinylation tag (from the vector pQE80L-Navi), N-terminal, kept
T5 sequence (looked up): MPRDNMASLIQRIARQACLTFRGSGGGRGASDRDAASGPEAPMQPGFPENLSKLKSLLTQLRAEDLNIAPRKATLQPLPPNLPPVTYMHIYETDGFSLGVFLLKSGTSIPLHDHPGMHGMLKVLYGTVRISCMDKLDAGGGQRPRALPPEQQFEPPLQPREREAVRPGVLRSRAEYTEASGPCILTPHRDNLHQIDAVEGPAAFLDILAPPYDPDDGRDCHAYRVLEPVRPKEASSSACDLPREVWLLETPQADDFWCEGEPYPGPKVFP

B1: RGS5(2-15), synthetic peptide corresponding to the methionine excised N-terminus of RGS5, residues 2 to 15 (peptide, UniProt O15539 2-15, looked up)
peptide: CKGLAALPHSCLER
notes: regulator of G-protein signalling 5 (RGS5), residues 2 to 15 (N-terminal Cys exposed); UniProt O15539 is printed for the full-length human protein; also called 14-mer RGS5; source: synthetic peptide
In general, Kd refers to a measure of binding affinity in units of concentration. Low values mean higher affinity, high ones lower affinity. In the case of B1, the Kd in assay [1] is 960 nM and 1120 nM and 1310 nM; in assay [2], 66500 nM and 90300 nM and 63100 nM; in assay [3], 1480 nM and 1650 nM and 1840 nM; in assay [4], 717 nM and 753 nM and 714 nM; in assay [5] it was 4420 nM and 4800 nM and 4780 nM.
